Assay results: patent US20070218051A1, “Epitope peptides immunogenic against Streptococcus pneumoniae” (Sarvamangala J N Devi, priority 1998, published 2007)

Legend:
[1] = test system: virulent capsular type 3 Streptococcus pneumoniae strain, WU2; assay: Protection experiment, Example 4: active immunization of xid mice, challenge with WU2; format: in vivo; details: CBA/CaHN/J xid mice; about 22 μg s.c. in CFA, 100 μg IP 14 days later; IV challenge 60 CFU WU2; observed 21 days
Protocol: CBA/CaHN/J Mice. X-linked immune deficiency (xid) CBA/N mice as described by Wicker et al., Curr. Top. Microbiol, Immunol. 124:86-[0] were used to study the protection afforded by the 37-kDa protein.
Twenty CBA/CaHN/J mice carrying the xid mutation […] immunodeficiency) were used in this protection study. They were tested for protection against challenge with a virulent capsulan type 3 Streptococcus pneumoniae strain, WU2. Mice were anesthetized with Ketamine/Rompum and bled infraorbitally to obtain pre-immunization sera. 37-kDa protein (pneumococcal surface adhesin A) was emulsified in complete Freund's adjuvant (CFA) to a protein concentration of 54 μg per ml. Ten mice were injected subcutaneously into 2 axillary and 2 inguinal sites at 0.1 ml per site, delivering approximately 22 μg protein/mouse. Ten control mice were treated identically with CFA and buffer substituting for protein. Fourteen days later, the ten test mice were injected intraperitoneally (IP) with 100 μg of the 37-kDa protein; controls were injected IP with buffer. Eight days following the IP immunizations, all mice were bled infraorbitally to obtain post-immunization sera, and challenged intravenously (IV) with 60 CFU of a log phase culture of S. pneumoniae strain WU2. […]

[2] = test system: S. pneumoniae type 3 strain, WU2; assay: Protection experiment, Example 5: active immunization of xid mice, challenge with WU2; format: in vivo, Streptococcus pneumoniae; details: CBA/CaHN/J xid mice immunized with 21 μg s.c. in CFA plus 100 μg IP boost; IV challenge 140 CFU WU2
Protocol: Twenty CBA/CaHN/J mice carrying the xid mutation were injected according to the following protocol:
1. All mice were bled prior to immunization to establish baseline immunity. Ten test mice were immunized subcutaneously in four sites with a total of 21 μg of 37-kDa protein antigen (pneumococcal fimbrial protein A) emulsified in Complete Freund's adjuvant (CFA). Ten control mice were immunized identically with CFA and buffer substituting for the antigen.
2. Fourteen days later, the mice were boosted intraperitoneally (IP) with 100 μg of the 37-kDa protein antigen (test mice) or with buffer (controls). No adjuvant was used with this booster immunization.
3. Eight days later, all mice were bled via the infraorbital sinus and the were collected and pooled into the two groups (immunized and controls). At the same time, blood was collected from individual mice to assay for antibody responses.
6. At the same time, the eighteen (8 test and 10 control) mice were challenged I.V with the same culture of WU2.
7. Deaths were tallied daily.

B1: 37-kDa protein: 37-kDa species-common S. pneumoniae protein, pneumococcal surface adhesin A (PsaA), used as immunogen (protein)
chain: CASGKKDTTSGQKLKVVATNSIIADITKNIAGDKIDLHSIVPIGQDPHEYEPLPEDVKKTSEADLIFYNGINLETGGNAWFTKLVENAKKTENKDYFAVSDGVDVIYLEGQNEKGKEDPHAWLNLENGIIFAKNIAKQLSAKDPNNKEFYEKNLKEYTDKLDKLDKESKDKFNKIPAEKKLIVTSEGAFKYFSKAYGVPSAYIWEINTEEEGTPEQIKTLVEKLRQTKVPSLFVESSVDDRPMKTVSQDTNIPIYAQIFTDSIAEQGKEGDSYYSMMKYNLDKIAEGLAK
survived (mice surviving/total) [1]: 10/10 | No. Dead/Total No. Challenged [2]: 0/8
